Test results: paper PMC4046772, “Different Dynamical Effects in Mesophilic and Hyperthermophilic Dihydrofolate Reductases” (Journal of the American Chemical Society, 2014)

Columns and labels:
steady-state kinetics [1] = substrate: Nc1nc2c(c(=O)[nH]1)N=C(CNc1ccc(C(=O)N[C@@H](CCC(=O)O)C(=O)O)cc1)CN2; test: steady-state kinetics; format: biochemical, Thermotoga maritima; details: 45 °C, light enzyme (natural isotope abundance), co-substrate NADPH, steady-state kinetics at pH 7
steady-state kinetics [2] = substrate: NC(=O)C1=CN([C@@H]2O[C@H](COP(=O)(O)OP(=O)(O)OC[C@H]3O[C@@H](n4cnc5c(N)ncnc54)[C@H](OP(=O)(O)O)[C@@H]3O)[C@@H](O)[C@H]2O)C=CC1; test: steady-state kinetics; format: biochemical, Thermotoga maritima; details: 45 °C, light enzyme (natural isotope abundance), co-substrate dihydrofolate, steady-state kinetics at pH 7

B1: TmDHFR (Thermotoga maritima MSB8) (protein)
chain: MAKVIFVLAMDVSGKIASSVESWSSFEDRKNFRKITTEIGNVVMGRITFEEIGRPLPERLNVVLTRRPKTSNNPSLVFFNGSPADVVKFLEGKGYERVAVIGGKTVFTEFLREKLVDELFVTVEPYVFGKGIPFFDEFEGYFPLKLLEMRRLNERGTLFLKYSVEKSHR
notes: purified homodimer, natural isotope abundance (light) enzyme; procedures in supplement
With B1 the Km (steady-state kinetics [1]) was 1 µM and the Km (steady-state kinetics [2]) was 1 µM.
